# Marks after values point to notes of the source that are not given here.
# B1: seribantumab (antibody, chains of the INN, looked up)
# heavy: EVQLLESGGGLVQPGGSLRLSCAASGFTFSHYVMAWVRQAPGKGLEWVSSISSSGGWTLYADSVKGRFTISRDNSKNTLYLQMNSLRAEDTAVYYCTRGLKMATIFDYWGQGTLVTVSSASTKGPSVFPLAPCSRSTSESTAALGCLVKDYFPEPVTVSWNSGALTSGVHTFPAVLQSSGLYSLSSVVTVPSSNFGTQTYTCNVDHKPSNTKVDKTVERKCCVECPPCPAPPVAGPSVFLFPPKPKDTLMISRTPEVTCVVVDVSHEDPEVQFNWYVDGVEVHNAKTKPREEQFNSTFRVVSVLTVVHQDWLNGKEYKCKVSNKGLPAPIEKTISKTKGQPREPQVYTLPPSREEMTKNQVSLTCLVKGFYPSDIAVEWESNGQPENNYKTTPPMLDSDGSFFLYSKLTVDKSRWQQGNVFSCSVMHEALHNHYTQKSLSLSPG
# light: QSALTQPASVSGSPGQSITISCTGTSSDVGSYNVVSWYQQHPGKAPKLIIYEVSQRPSGVSNRFSGSKSGNTASLTISGLQTEDEADYYCCSYAGSSIFVIFGGGTKVTVLGQPKAAPSVTLFPPSSEELQANKATLVCLVSDFYPGAVTVAWKADGSPVKVGVETTKPSKQSNNKYAASSYLSLTPEQWKSHRSYSCRVTHEGSTVEKTVAPAECS
# Legend:
# EGFR-mutated NSCLC = details: cited from earlier work
# [1] = Phase I study U31402-A-U102, HER3-DXd i.v. once every 3 weeks: safety; format: in vivo, human
# [2] = all patients 3.2/4.8/5.6/6.4 mg/kg (n = 81)
molecule,measurement,setting,value
"C=CC(=O)Nc1cc(Nc2nccc(-c3cn(C)c4ccccc34)n2)c(OC)cc1N(C)CCN(C)C [osimertinib, reference compound]",Median OS,EGFR-mutated NSCLC; third-generation EGFR TKI compared with first-generation EGFR TKIs,38.6 months
Patritumab deruxtecan [HER3-DXd],Patients who experienced dose-limiting toxicities,"[1]; 4.8 mg/kg dose group, grade 3 neutrophil count decreased, grade 4 platelet count decrease, white blood cell count decrease",1 patient
same,Patients who experienced dose-limiting toxicities,"[1]; 6.4 mg/kg dose group, grade 4 platelet count decrease",3 patients
same,Patients who experienced dose-limiting toxicities,"[1]; […] dose group, grade 3 febrile neutropenia and grade 4 platelet count decrease",1 patient
same,"Adjudicated treatment-related ILD, patients",[1]; all doses (4/81),5%
same,"TEAEs associated with death, patients","[1]; all doses (5/81), none judged related to study treatment",6%
same,"Treatment discontinued due to TEAEs, patients",[1]; all doses (7/81),9%
same,"Grade 4 thrombocytopenia, patients",[1]; all doses (11/81),13.6%
same,"Grade ≥3 neutropenia, patients",[1]; all doses (12/81),15%
same,"TEAEs associated with dose reduction, patients",[1]; all doses (18/81),22%
same,"Grade ≥3 thrombocytopenia, patients",[1]; all doses (21/81),26%
same,"TEAEs associated with dose interruption, patients",[1]; all doses (30/81),37%
same,"TEAE nausea, patients",[1]; all doses (49/81),60%
same,"Grade ≥3 TEAEs, patients",[1]; all doses (52/81),64%
same,"TEAE fatigue, patients",[1]; all doses (52/81),64%
same,Adjudicated ILD,[1]; [2],5 (6)^e n (%)
same,Adjudicated treatment-related ILD,[1]; [2],4 (5)^f n (%)
same,Any TEAE,[1]; [2],81 (100) n (%)
same,Grade ≥3 TEAE: Anemia/hemoglobin decrease,[1]; [2],6 (7) n (%)
same,Grade ≥3 TEAE: Dyspnea,[1]; [2],5 (6) n (%)
same,Grade ≥3 TEAE: Fatigue,[1]; [2],8 (10) n (%)
same,Grade ≥3 TEAE: Febrile neutropenia,[1]; [2],5 (6) n (%)
same,Grade ≥3 TEAE: Hypokalemia,[1]; [2],4 (5) n (%)
same,Grade ≥3 TEAE: Hypoxia,[1]; [2],5 (6) n (%)
same,Grade ≥3 TEAE: Lymphocyte count decrease/lymphopenia,[1]; [2],4 (5) n (%)
same,Grade ≥3 TEAE: Neutrophil count decrease/neutropenia,[1]; [2],12 (15) n (%)
same,Grade ≥3 TEAE: Platelet count decrease/thrombocytopenia,[1]; [2],21 (26) n (%)
same,Grade ≥3 TEAE: White blood cell count decrease/leukopenia,[1]; [2],5 (6) n (%)
same,Grade ≥3 TEAEs,[1]; [2],52 (64) n (%)
same,Grade ≥3 treatment-related TEAEs,[1]; [2],38 (47) n (%)
same,Serious TEAEs,[1]; [2],32 (40) n (%)
same,Serious treatment-related TEAEs,[1]; [2],15 (19) n (%)
same,TEAEs associated with death,[1]; [2],5 (6)^d n (%)
same,TEAEs associated with dose interruption,[1]; [2],30 (37) n (%)
same,TEAEs associated with dose reduction,[1]; [2],18 (22) n (%)
same,TEAEs associated with treatment discontinuation,[1]; [2],7 (9)^b n (%)
same,Treatment-related TEAEs,[1]; [2],78 (96) n (%)
same,Treatment-related TEAEs associated with death,[1]; [2],0 n (%)
same,Patients who experienced dose-limiting toxicities,"[1]; dose escalation part, 36 patients",5 patients
same,Recommended dose for expansion (RDE),[1]; i.v. once every 3 weeks,5.6 mg/kg
same,TEAEs associated with dose interruption,[1]; pooled RDE […] (n = 57),21 (37) n (%)
same,TEAEs associated with dose reduction,[1]; pooled RDE […] (n = 57),12 (21) n (%)
B1,Efficacy of unconjugated HER3 antibody,EGFR-mutated NSCLC; in combination with erlotinib,did not confer clinically meaningful efficacy

# From PMC9401524 (Cancer Discovery, 2021)
